The values below are quoted from earlier work in paper PMC2883863.

In one series the target is Cys32 (UniProt position 33, FWAEWCGPCKM). The settings on record: not stated (quoted literature value for E. coli thioredoxin).
The next series has as its target Cys30 (UniProt position 49, FFSFFCPHCYQ). As to conditions: not stated (quoted literature value for E. coli DsbA).

In general, pKa refers to the pH at which an ionisable group is half protonated. Take Thioredoxin 1 (Escherichia coli): in the series with Cys32, the pKa is recorded as 7.5. “Thiol:disulfide interchange protein DsbA (Escherichia coli)”: in the series with Cys30, the pKa is reported as 3.5.
